The results in this text go back to patent US20170298113A1 (TEL HASHOMER MEDICAL RESEARCH INFRASTRUCTURE AND SERVICES, published 2017).

In experiment [1] the target is human somatostatin receptor subtype SSTR1 (human) (UniProt P30872). Description: FACS, transfected HEK-293 cells; normalised to Compound 1. (In general: In flow cytometry, cells or beads pass a laser one at a time.)
Experiment [2] addresses human somatostatin receptor subtype SSTR4 (human) (UniProt P31391). The experiment is described as above.
In experiment [3] the target is human somatostatin receptor subtype SSTR5 (human) (UniProt P35346). Described as above.
Experiment [4] concerns the target human somatostatin receptor subtype SSTR2 (human) (UniProt P30874). The experiment is described as above.
In experiment [5] the target is human somatostatin receptor subtype SSTR3 (human) (UniProt P32745). The description is as above.
The target of experiment [6] is human somatostatin receptor subtype SSTR1 (human) (UniProt P30872). Description: FACS, transfected HEK-293 cells; row normalised to highest.
The target of experiment [7] is human somatostatin receptor subtype SSTR4 (human) (UniProt P31391). The description is as above.
Experiment [8] addresses human somatostatin receptor subtype SSTR5 (human) (UniProt P35346). The description is as above.
The target in experiment [9] is human somatostatin receptor subtype SSTR2 (human) (UniProt P30874). Described as above.
Experiment [10] addresses human somatostatin receptor subtype SSTR3 (human) (UniProt P32745). Described as above.
Experiment [11] concerns the target human somatostatin receptor subtype SSTR1 (human) (UniProt P30872). In words: FACS, transfected HEK-293 cells.
Experiment [12] concerns the target human somatostatin receptor subtype SSTR4 (human) (UniProt P31391). In words: FACS, transfected HEK-293 cells.
Experiment [13] concerns the target human somatostatin receptor subtype SSTR5 (human) (UniProt P35346). Description: FACS, transfected HEK-293 cells.
The target in experiment [14] is human somatostatin receptor subtype SSTR2 (human) (UniProt P30874). In words: FACS, transfected HEK-293 cells.
Experiment [15] deals with human somatostatin receptor subtype SSTR3 (human) (UniProt P32745). In words: FACS, transfected HEK-293 cells.
Experiment [16] deals with T1, human somatostatin receptor subtype SSTR3 (human, UniProt P32745 1-418).
T1 construct: whole, on cells
Description: FACS, transfected HEK-293 cells; normalised to Compound 1. The procedure: (§1) Biological activity assessment of the compounds to define a specific affinity to each subtype was performed by FACS and fluorescence imaging methods.
(§2) The transfection process is illustrated in FIG. 1. The transient transfection process was carried out before each experiment. Briefly, HEK cells were cultured in standard cell growth conditions. For testing, the cells were transferred into 96-well plates. The tested compounds were dissolved in DMSO and then diluted in a buffer solution to a final DMSO concentration of 5% as a composition according to the teachings herein. Various amounts of the thus-prepared compositions were added to the cells in medium in the 96-well plates and allowed to incubate for between 1 and 24 hours. Binding was determined using fluorescent microscopy and FACS.
(§3) The cells were incubated for additional time intervals ranging from 0.5-24 hr. At the end of the incubation period, supernatant was discarded and the cells were washed twice with cold PBS. The plates were examined using IX81 inverted microscope (Olympus, Japan) equipped with PR71 digital camera. Additionally, a FACS assay was used for quantitative analysis.

The target in experiment [17] is T2, human somatostatin receptor subtype SSTR4 (human, UniProt P31391 1-388).
T2 construct: whole, on cells
The experiment is described as above. The procedure:
as §1, §2, §3

For experiment [18], the target named is T3, human somatostatin receptor subtype SSTR1 (human, UniProt P30872 1-391).
T3 construct: whole, on cells
Described as above. The procedure: as §1, §2, §3

The target of experiment [19] is T4, human somatostatin receptor subtype SSTR5 (human, UniProt P35346 1-364).
T4 construct: whole, on cells; also called SSTRS
Described as above. The procedure: as §1, §2, §3

Experiment [20] concerns the target T5, human somatostatin receptor subtype SSTR2 (human, UniProt P30874 1-369).
T5 construct: whole, on cells
The description is as above. The procedure:
as §1, §2, §3

Experiment [21] has as its target T1, human somatostatin receptor subtype …. In words: FACS, transfected HEK-293 cells; row normalised to highest. The procedure: as §1, §2, §3
Experiment [22] addresses T2, human somatostatin receptor subtype …. The description is as above. The procedure: as §1, §2, §3
The target of experiment [23] is T3, human somatostatin receptor subtype …. The experiment is described as above. The procedure:
as §1, §2, §3

For experiment [24], the target named is T4, human somatostatin receptor subtype …. The experiment is described as above. The procedure:
as §1, §2, §3

Experiment [25] addresses T5, human somatostatin receptor subtype …. The experiment is described as above. On the procedure: as §1, §2, §3
Experiment [26] deals with T1, human somatostatin receptor subtype …. Description: FACS, transfected HEK-293 cells. On the procedure:
as §1, §2, §3

In experiment [27] the target is T2, human somatostatin receptor subtype …. In words: FACS, transfected HEK-293 cells. On the procedure:
as §1, §2, §3

The target in experiment [28] is T4, human somatostatin receptor subtype …. In words: FACS, transfected HEK-293 cells. The procedure: as §1, §2, §3
In experiment [29] the target is T5, human somatostatin receptor subtype …. Description: FACS, transfected HEK-293 cells. On the procedure:
as §1, §2, §3

*1 amine or outer side, *2 acyl side, *3 side chain or, on linkers, in order; H or OH if unused. Bridges are numbered along the chain shown (N, C = ends). Primed or numbered codes have the meaning given here. [ ]: non-standard residue; d: D form. N(2-mercaptoethyl)Gly = O=C(CN(CCS[*:3])[*:1])[*:2]; FITC′ = fluorescein isothiocyanate; GABA = NCCCC(=O)O

Chain of human somatostatin receptor subtype SSTR1 (human) (P30872 whole entry): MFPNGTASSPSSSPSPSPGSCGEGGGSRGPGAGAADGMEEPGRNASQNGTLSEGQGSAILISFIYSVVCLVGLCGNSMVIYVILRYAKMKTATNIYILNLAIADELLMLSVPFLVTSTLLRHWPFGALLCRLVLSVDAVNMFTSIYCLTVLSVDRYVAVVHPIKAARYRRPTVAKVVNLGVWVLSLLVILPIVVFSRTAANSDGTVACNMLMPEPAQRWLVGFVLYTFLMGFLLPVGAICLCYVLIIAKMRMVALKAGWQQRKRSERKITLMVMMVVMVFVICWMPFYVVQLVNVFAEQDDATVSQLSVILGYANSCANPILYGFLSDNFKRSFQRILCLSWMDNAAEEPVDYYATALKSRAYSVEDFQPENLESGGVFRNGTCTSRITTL
T5 sequence (P30874 whole entry): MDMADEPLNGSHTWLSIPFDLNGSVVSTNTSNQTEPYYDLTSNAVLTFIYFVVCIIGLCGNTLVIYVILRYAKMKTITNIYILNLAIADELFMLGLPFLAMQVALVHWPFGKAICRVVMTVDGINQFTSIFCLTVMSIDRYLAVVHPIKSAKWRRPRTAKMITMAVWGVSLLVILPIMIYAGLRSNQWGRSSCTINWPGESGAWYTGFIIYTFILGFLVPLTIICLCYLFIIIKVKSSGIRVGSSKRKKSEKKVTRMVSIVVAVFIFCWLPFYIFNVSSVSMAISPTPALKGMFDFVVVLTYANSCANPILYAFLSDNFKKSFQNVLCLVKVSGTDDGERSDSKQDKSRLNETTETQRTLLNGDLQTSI
Chain of human somatostatin receptor subtype SSTR2 (human) (P30874 whole entry): as above
Chain of human somatostatin receptor subtype SSTR3 (human) (P32745 whole entry): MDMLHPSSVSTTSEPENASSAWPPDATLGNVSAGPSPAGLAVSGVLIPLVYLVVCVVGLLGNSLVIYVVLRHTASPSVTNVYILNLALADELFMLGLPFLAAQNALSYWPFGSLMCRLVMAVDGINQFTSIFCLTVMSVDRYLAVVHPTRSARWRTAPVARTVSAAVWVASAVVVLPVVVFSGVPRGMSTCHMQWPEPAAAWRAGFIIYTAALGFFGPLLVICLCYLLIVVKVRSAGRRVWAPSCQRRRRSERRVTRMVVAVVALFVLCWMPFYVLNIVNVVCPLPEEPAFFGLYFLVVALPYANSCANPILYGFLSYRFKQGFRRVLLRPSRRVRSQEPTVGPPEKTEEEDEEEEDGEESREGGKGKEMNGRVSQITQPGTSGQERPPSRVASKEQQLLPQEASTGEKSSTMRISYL
T1 sequence (P32745 whole entry): as above
Chain of human somatostatin receptor subtype SSTR4 (human) (P31391 whole entry): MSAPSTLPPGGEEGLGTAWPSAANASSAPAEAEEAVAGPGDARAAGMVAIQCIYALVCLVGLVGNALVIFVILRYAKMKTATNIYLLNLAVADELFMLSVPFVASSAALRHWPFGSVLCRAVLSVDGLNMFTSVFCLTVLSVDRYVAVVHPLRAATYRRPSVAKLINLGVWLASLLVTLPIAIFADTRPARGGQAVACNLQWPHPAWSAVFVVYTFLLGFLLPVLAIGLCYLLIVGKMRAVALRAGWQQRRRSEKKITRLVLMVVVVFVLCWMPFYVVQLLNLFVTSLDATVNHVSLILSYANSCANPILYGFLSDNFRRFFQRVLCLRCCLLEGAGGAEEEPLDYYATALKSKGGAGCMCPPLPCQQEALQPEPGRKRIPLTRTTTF
T2 sequence (P31391 whole entry): as above
T4 sequence (P35346 whole entry): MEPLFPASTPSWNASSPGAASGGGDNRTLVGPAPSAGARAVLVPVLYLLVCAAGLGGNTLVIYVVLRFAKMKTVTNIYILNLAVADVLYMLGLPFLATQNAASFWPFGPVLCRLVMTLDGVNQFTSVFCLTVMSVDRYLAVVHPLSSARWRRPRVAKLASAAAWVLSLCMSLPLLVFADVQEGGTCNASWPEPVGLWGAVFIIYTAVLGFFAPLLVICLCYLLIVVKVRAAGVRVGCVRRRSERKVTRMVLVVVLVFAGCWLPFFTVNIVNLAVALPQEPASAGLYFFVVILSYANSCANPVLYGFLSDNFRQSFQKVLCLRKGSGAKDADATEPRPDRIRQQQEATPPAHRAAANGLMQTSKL
Chain of human somatostatin receptor subtype SSTR5 (human) (P35346 whole entry): as above
T3 sequence (P30872 whole entry): as the sequence (P30872 whole entry) above

As for {FITC′-GABA}-[dF]CYW[dW]KTF[N(2-mercaptoethyl)Gly]-NH2 (disulfide 2-9) [Compound 4], the Binding affinity relative to Compound 1 (% of Compound 1) in experiment [1] was 100; in experiment [2], 36; in [3], 4; in [4], 123; in experiment [5] it was 141. In addition, the Adjusted binding affinity was 0.13 in [6]; 0.33 in experiment [7]; 0.4 in experiment [8]; 0.33 in experiment [9]; 1 in [10]. Further, the Relative binding affinity is 3.6% in experiment [11]; 13.3% in experiment [12]; 9.3% in experiment [13]; 4.3% in experiment [14]; 15.7% in experiment [15].
Turning to {FITC′-GABA}-[dF]CFW[dW]RTF[N(2-mercaptoethyl)Gly]-NH2 (disulfide 2-9) [Compound 15], the Binding affinity relative to Compound 1 (% of Compound 1) in experiment [1] amounted to 133; in experiment [2], 40; in experiment [3] it was 26; in experiment [4] it was 77; in [5], 79. Moreover, the Adjusted binding affinity in experiment [6] was 0.3; in [7], 0.67; in experiment [8], 0.56; in [9], 0.37; in experiment [10], 1. Also, the Relative binding affinity in experiment [11] came to 4%; in [12], 9%; in experiment [13] it was 7.5%; in experiment [14] it was 5%; in [15], 13.5%.

B1: Compound 9 (peptide)
peptide: {FITC′-GABA}-CRF[dW]KTF[N(2-mercaptoethyl)Gly]-NH2
modifications: disulfide 1-8
notes: Synthetic cyclic peptide-fluorescent agent conjugate; also called 21
Regarding B1, the “Binding affinity relative to Compound 1” value was 82 % of Compound 1 in experiment [16]; 67 % of Compound 1 in [17]; 0 % of Compound 1 in experiment [18]; 70 % of Compound 1 in experiment [19]; 154 % of Compound 1 in experiment [20]. In addition, the Adjusted binding affinity in experiment [21] came to 0.7; in [22], 0.75; in experiment [23] it was 0; in experiment [24], 1; in [25] it was 0.5. Besides, the Relative binding affinity in [26] amounted to 14%; in experiment [27], 15%; in [28], 20%; in [29] it was 10%.
